These results are taken from patent US20240301046A1 (MABWELL THERAPEUTICS, published 2024).

The target in assay [1] is T1, HiLyte488 labelled Aβ1-42 protofibrils (UniProt P05067 672-713, HiLyte488 fluorophore on part of the peptides (labelled and unlabelled Aβ1-42 monomers mixed 1:5)). Nature of the assay: cell-based or functional assay.
Assay [2] addresses T2, Aβ1-42 (rPeptide, A-1167-2) (UniProt P05067 672-713).
T2 construct: domain: Aβ1-42; also called Abeta 1-42
In words: direct ELISA, coated Aβ1-42. The protocol: Direct ELISA was used to test each antibody's affinity for Aβ₁₋₄₂ and pyroglutamate-modified Aβ (Aβₚ₃₋₄₂). Plates were coated with 0.5 μM of Aβ₁₋₄₂ (rPeptide, A-1167-2) or Aβₚ₃₋₄₂ (AnaSpec, AS-29907-01) for 2 h at 4° C. Diluents of antibodies (3-fold serial dilutions with concentrations in the range of 0-100 nM) were added to the plate for 1 h at RT. Binding of antibody to immobilized Aβ on each plate was detected by HRP-labeled secondary antibody and TMB substrate, as described in Example 2.
(ELISA stands for enzyme-linked immunosorbent assay.)

Assay [3] concerns the target T3, biotin-labelled Aβ1-40 monomer (AnaSpec, AS-61483-01) (UniProt P05067 672-711, biotin label, position not stated).
T3 construct: domain: Aβ1-40; also called biotin-conjugated Aβ40 monomer; biotin-Aβ monomer
Nature of the assay: capture ELISA, coated antibody, biotin-Aβ1-40 monomer. How it is done:
(§1) A 96-well plate was coated with 5 μg/mL of antibodies overnight at RT. The plate was then treated with diluents of biotin-labelled Aβ₁₋₄₀ monomers (AnaSpec, AS-61483-01, 4-fold serial dilutions with concentrations in the range of 0-1000 nM) for 1 h at RT. The binding of biotin-labelled Aβ₁₋₄₀ monomers with immobilized antibody was detected by HRP-conjugated streptavidin and TMB, as described in Example 2.

In assay [4] the target is T1, HiLyte488 labelled Aβ1-42 protofibrils. In words: cell-based or functional assay. The source holds these as a separate data set.
The target of assay [5] is T2, Aβ1-42 (rPeptide, A-1167-2). In words: direct ELISA, coated Aβ1-42. The source holds these as a separate data set.
In assay [6] the target is T3, biotin-labelled Aβ1-40 monomer …. In words: capture ELISA, coated antibody, biotin-Aβ1-40 monomer. How it is done:
The plate was incubated for 1 h at RT and washed 3 times with PBST. The plate was then incubated with HRP-conjugated streptavidin (Thermo Fisher Scientific, SNN2004) at 1:5000 diluted in 1% BSA for 20 min at RT and washed 3 times. TMB Stabilized Chromogen substrate solution (Life Technologies, SB02) was added to the plate, and the reaction was stopped by adding 1M sulfuric acid. The absorbance at 450 nm was measured in a plate reader.
as §1
The source holds these as a separate data set.

Assay [7] addresses T2, Aβ1-42 (rPeptide, A-1167-2). In words: direct ELISA, coated Aβ1-42. This is another data set of the same source.
Assay [8] shares this target. Nature of the assay: direct ELISA, coated Aβ1-42. The source holds these as a separate data set.
Assay [9] addresses T4, pyroglutamate-modified Aβ (Aβp3-42) (AnaSpec, AS-29907-01) (UniProt P05067 674-713, pyroglutamate at Aβ position 3 (the N-terminus)).
T4 construct: domain: Aβp3-42; also called Abeta p3-42
In words: direct ELISA, coated Aβp3-42.

Assay [10] deals with T3, biotin-labelled Aβ1-40 monomer …. In words: capture ELISA, coated antibody, biotin-Aβ1-40 monomer. The source holds these as a separate data set.

Like-named read-outs stand apart in the source and are kept apart here.

B1: 22H10A (antibody, V domains shown)
VH: EMQLVESGGGLVKPGGSLRLSCAASGFTFSSYSMNWVRQAPGKGLEWVSSISTRKNYIYYADSVQGRFIFSRDNAKNALYLQMNSLRAEDSAVYYCTRGGYIRSPNAFDIWGQGTMVTVSS
VL: QTVVTQEPSLTVSPGGTVTLTCASSTGTVTSGYFPNWLQQKPGQAPRALIYSINNKHFWTPARFSGSLLGGKAALTLSGVQPEDEAEYYCLLYYGGAWVFGGGTKLTVL
On to B1, for which the “ADCP (RFU)” value in [1] came out at 99100 RFU. Also, the EC50 (in general, the concentration needed to bring the measured effect to its halfway point) in assay [2] was 0.075 nM; in assay [3] it was 0.07 nM.

B2: 17D08A (antibody, V domains shown)
VH: EVQLVESGGGLVQPGGSLKLSCAASGFTFSGSAIHWVRQASGKGLEWVGRIRSKVNSYATAYAASVKGRFTISRDDSKNTAYLQMNSLKTEDTAVYYCTRHAPNFDAFDIWGQGTMVTVSS
VL: QSVLTQPPSVSAAPGQKVTISCSGYSSNIGNHYVSWYQQLPGTAPKFFIYDNNKRPSGIPDRFSGSKSGTSATLGITGLQTGDEADYYCGTWDSSLITYVFGTGTKVTVL
Consider B2, for which the “ADCP (RFU)” value in [1] is 194000 RFU. Also, the EC50 in [2] worked out at 0.075 nM; in [3] it was 0.34 nM.

B3: 15M13A (antibody, V domains shown)
VH: QVTLKESGPGILQPSQTLSLTCSFSGFSLSTFGMGVGWIRQPSGKGLEWLAHIWWDDDKYYNPALKSRLTISKDTSKNQVFLKIANVDTADTATYYCARLGYYPYWFFDVWGTGTTVTVSS
VL: QSVLTQPPSVSAAPGQKVTISCSGSSSNIGNHYVSWYQQLPGTAPKLLIYDNNKRPSGIPDRFSGSKSGTSATLGITGLQTGDEADYYCGTWDTSLSAVVFGGGTKLTVL
For the molecule B3, the “ADCP (RFU)” value in assay [1] stood at 273000 RFU. In addition, the EC50 worked out at 0.038 nM in assay [2] and 0.78 nM in [3].

B4: 21G10A (antibody, V domains shown)
VH: EVQLVESGGGSVQPGGSLRLSCAASGFTFSSYWMHWVRQAPGKGLVWVSRINSDGSITTYADSVKGRFTISRDNAKNTLYLQMNSLRAEDTAVYYCARGGGSLDYWGQGTLVTVSS
VL: QSVLTQPPSVSAAPGQKVTISCSGSSSNIGNYYVSWYQQLPGTAPKLLIYDNNKRPSGIPDRFSGSKSGTSATLGITGLQTGDEADYYCGTWDSSLSAVVFGGGTKLTVL
For the molecule B4, in assay [1], the “ADCP (RFU)” value was determined as 245000 RFU. The EC50 in assay [2] was determined as 0.042 nM; in assay [3], 0.02 nM.

B5: 21F12A (antibody, V domains shown)
VH: EVQLAESGGGSVQPGGSLRLSCAASGFTFSSYWMHWVRQVPGKGLVWVSRINSDGSTTTYADSVKGRFTISRDNAKNTLYLQMNSLRAEDTAVYYCARGGGSLDYWGQGTLVTVSS
VL: QSVLTQPPSVSAAPGQKVTISCSGSSSNIGNYYVSWYQQLPGTAPKLLIYDNNKRPSGIPDRFSGSKSGTSATLGITGLRTGDEADYYCGTWDSSLSAVVFGGGTKLTVL
For B5, in assay [1], the “ADCP (RFU)” value worked out at 262000 RFU. Further, the EC50 amounted to 0.048 nM in assay [2] and 0.01 nM in assay [3].

B6: 17H05A (antibody, V domains shown)
VH: EVQLVESGGGSVQPGGSLRLSCAASGFTFSSYWMHWVRQVPGKGLVWVSRINSDGSITSYADSVKGRFTISRDNAKNTLYLQMNSLRAENTAVYYCARGGGSLDYWGQGTLVTVSS
VL: QSVLTQPPSVSAAPGQKVTISCSGSSSNIGNYYVSWYQQLPGTAPKLLIYDNHKRPSGIPDRFSGSKSGTSATLGITGLQTGDEADYYCGTWDSSLSAVVFGGGTKLTVL
As to B6, the “ADCP (RFU)” value in [1] is 279000 RFU. In addition, the EC50 was 0.051 nM in [2] and 0.02 nM in [3].

B7: 20O11A (antibody, V domains shown)
VH: EVQLVESGGGLVQPGGSLRLSCAASGFTFSSYWMHWVRQAPGKGLAWVARINSDGSSTSYADSVKGRFTISRDNAKNTLYLQMNSLRAEDTAVYYCARGGGLFDYWGQGTLVTVSS
VL: QSVLTQPPSVSAAPGQKVTISCSGSSSNIGNHYVSWYQQLPGTAPKLLIYDNNKRPSGIPDRFSGSKSGTSATLGITGLQTGDEADYYCGTWDSSLGAVLFGGGTKLTVL
For the molecule B7, the “ADCP (RFU)” value in assay [1] amounted to 257000 RFU. Besides, the half-maximal effective concentration (EC50) in assay [2] came to 0.05 nM; in assay [3], 0.01 nM.

B8: 18F06A (antibody, V domains shown)
VH: EVQLVESGGGLVQPGGSLRLSCAASGFTFSSYWMHWVRQAPGKGLVWVSRINRDGSTTSYADSVKGRFTISRDNAKNTLYLQMNRLRAEDTAVYYCARGGGAFDIWGQGTMVTVSS
VL: QSVLTQPPSVSAAPGQKVTISCSGSSSNIGNYYVSWYQQLPGTAPKLLIYDNNKRPSGIPDRFSASKSGTSATLGITGLQTGDEADYYCGTWDDSLSAVVFGGGTKLTVL
For the molecule B8, the “ADCP (RFU)” value in assay [1] was 126000 RFU. The concentration giving a half-maximal response (EC50) in assay [2] worked out at 0.068 nM.

B9: 18P01A(mIgG2a) (antibody)
heavy: EVQLVESGGGLVQPGGSLKLSCAVSGFTFSGSAMHWVRQASGKGLEWVGRIRSKANSYATAYAASVKGRFTISRDDSKNTAFLQMNSLKTEDTAVYYCTSHAPNFDAFDIWGQGTMVTVSSASTKGPSVFPLAPCSRSTSESTAALGCLVKDYFPEPVTVSWNSGALTSGVHTFPAVLQSSGLYSLSSVVTVPSSNFGTQTYTCNVDHKPSNTKVDKTVERKCPPCKCPAPNLLGGPSVFIFPPKIKDVLMISLSPIVTCVVVDVSEDDPDVQISWFVNNVEVHTAQTQTHREDYNSTLRVVSALPIQHQDWMSGKEFKCKVNNKDLPAPIERTISKPKGSVRAPQVYVLPPPEEEMTKKQVTLTCMVTDFMPEDIYVEWTNNGKTELNYKNTEPVLDSDGSYFMYSKLRVEKKNWVERNSYSCSVVHEGLHNHHTTKSFSRTPGK
light: QSVLTQPPSVSAAPGQKVTISCSGSSSNIGNHYVSWYQQLPGTAPKFFIYDNSKRPSGIPDRFSGSKSGTSATLGITGLQTGDEADYYCGTWDSSLSTYVFGTGTKVTVLGQPKAAPSVTLFPPSSEELQANKATLVCLISDFYPGAVTVAWKADSSPVKAGVETTTPSKQSNNKYAASSYLSLTPEQWKSHRSYSCQVTHEGSTVEKTVAPTECS
notes: chimeric: human F(ab')2, mouse IgG2a CH2-CH3, recombinant
Take B9: the “ADCP (RFU)” value in [4] is 488000 RFU. The EC50 was 0.087 nM in assay [5] and 248 nM in [6].

B10: 18P01A(hIgG1) (antibody)
heavy: not shown
light: QSVLTQPPSVSAAPGQKVTISCSGSSSNIGNHYVSWYQQLPGTAPKFFIYDNSKRPSGIPDRFSGSKSGTSATLGITGLQTGDEADYYCGTWDSSLSTYVFGTGTKVTVLGQPKAAPSVTLFPPSSEELQANKATLVCLISDFYPGAVTVAWKADSSPVKAGVETTTPSKQSNNKYAASSYLSLTPEQWKSHRSYSCQVTHEGSTVEKTVAPTECS
notes: fully human IgG1 lambda, expressed in CHO cells; also called Fully human 18P01A (hlgG1); fully human 18P01A
For B10, in [7], the “fold increase of EC50 against the original chimeric 18P01A” value was above 800 fold. In addition, the figures for the EC50 in [8], in assay [9] and in assay [10] were 50 nM, 196 nM and 917 nM, respectively.

B11: 17P04A(hIgG1) (antibody)
heavy: not shown
light: QTVVTQEPSLTVSPGGTVTLTCASSTGAVTSDYYPNWFQQKPGQAPRALIYSASTKHSWTPARFSGSLLGGKAALTLSGVQPEDEADYYCLLYYGGAWVFGGGTKLTVLGQPKAAPSVTLFPPSSEELQANKATLVCLISDFYPGAVTVAWKADSSPVKAGVETTTPSKQSNNKYAASSYLSLTPEQWKSHRSYSCQVTHEGSTVEKTVAPTECS
notes: fully human IgG1 lambda, expressed in CHO cells; also called Fully human 17P04A (hlgG1)
B11: the EC50 in assay [8] worked out at 0.062 nM; in [9], 38.7 nM; in assay [10], 33.8 nM.
